Reference: patent US8197839B2, “Sustained release delivery system” (Virbac Corporation, priority 2001, dated 2012)

Assay: Feed conversion efficiency in pigs after sub-cutaneous implantation of rPST compressed tablets, 0-7 days
Format: in vivo
Details: 0-7 days (Table 6)
Text: A number of the compressed tablets were implanted via sub-cutaneous injection in pigs.

| Molecule | FCR | Feed intake [kgs] | Weight increase [kgs] |
| --- | --- | --- | --- |
| PST Injection A: daily injection of porcine somatotropin, 5 mg/day, comparator (source A) (protein, UniProt P01248 27-216, looked up) Somatotropin: FPAMPLSSLFANAVLRAQHLHQLAADTYKEFERAYIPEGQRYSIQNAQAAFCFSETIPAPTGKDEAQQRSDVELLRFSLLLIQSWLGPVQFLSRVFTNSLVFGTSDRVYEKLKDLEEGIQALMRELEDGSPRAGQILKQTYDKFDTNLRSDDALLKNYGLLSCFKKDLHKAETYLRVMKCRRFVESSCAF | 1.97 | 16.33 | 8.30 |
| PST Injection M: daily injection of porcine somatotropin, 5 mg/day, comparator (source M) (protein, UniProt P01248 27-216, looked up) Somatotropin: FPAMPLSSLFANAVLRAQHLHQLAADTYKEFERAYIPEGQRYSIQNAQAAFCFSETIPAPTGKDEAQQRSDVELLRFSLLLIQSWLGPVQFLSRVFTNSLVFGTSDRVYEKLKDLEEGIQALMRELEDGSPRAGQILKQTYDKFDTNLRSDDALLKNYGLLSCFKKDLHKAETYLRVMKCRRFVESSCAF | 1.78 | 16.78 | 9.43 |
